For test [1], the target named is T1, EGFR (Homo sapiens, UniProt P00533). Put plainly: Inhibition of EGFR phosphorylation in NCI-H292 cells. The class given is cell-based. Further details: host or cells: NCI-H292. Conditions: FIG. 5A. The method, then: Purified EGFR-binding FN3 domains were tested for their ability to inhibit EGF-stimulated phosphorylation of EGFR in A431 cells at a single concentration. EGFR phosphorylation was monitored using the EGFR phospho(Tyr1173) kit (Meso Scale Discovery). […] Controls were treated with starvation medium only. […] One set of control wells was left un-stimulated as negative controls. Medium was completely removed, and cells were lysed with 100 μL/well of Complete Lysis Buffer (Meso Scale Discovery) for 10 minutes at room temperature with shaking, as per the manufacturer's instructions. […] Signals were detected by addition of 150 μL/well of Read Buffer (Meso Scale Discovery) and reading on a SECTOR® Imager 6000 instrument (Meso Scale Discovery) using manufacturer-installed assay-specific default settings. Percent inhibition of the EGF-stimulated positive control signal was calculated for each EGFR-binding FN3 domain.
NCI-H292, NCI-H441, or NCI-H596 cells were plated in 96 well plates in RPMI medium containing 10% FBS. […] Cells were lysed with MSD Lysis Buffer and cell signaling was assessed using appropriate MSD Assay plates, according to manufacturer's instructions, as described above.

In test [2] the target is T1, EGFR. Put plainly: Inhibition of EGFR phosphorylation in NCI-H596 cells. The conditions noted are these: FIG. 5B. The arrangement: host or cells: NCI-H292. The test is classed as cell-based. The method, then: (§1) NCI-H292, NCI-H441, or NCI-H596 cells were plated in 96 well plates in RPMI medium containing 10% FBS. 24 hours later, medium was replaced with serum free RPMI. […] Cells were treated for 1 h with the monospecific or bispecific molecules and then stimulated with EGF, HGF, or a combination of EGF and HGF for 15 minutes at 37° C., 5% CO2. Cells were lysed with MSD Lysis Buffer and cell signaling was assessed using appropriate MSD Assay plates, according to manufacturer's instructions, as described above.

Test [3] concerns the target T1, EGFR. Briefly: Inhibition of EGFR phosphorylation in NCI-H441 cells. The test is classed as cell-based. Further details: host or cells: NCI-H292. The conditions noted are these: FIG. 5C. The method, then: as §1
For test [4], the target named is T2, recombinant EGFR extracellular domain (EGFR-Fc) (Homo sapiens, UniProt P00533).
T2 construct: purchased R&D Systems
Briefly: EGFR-Fc affinity by surface plasmon resonance (Proteon). The test is classed as binding. Conditions: SPR, 1:1 Langmuir fit; read-out: EGFR-Fc Affinity. The method, then:
Select EGFR-binding FN3 domains were screened to identify those with slow off-rates (koff) in binding to EGFR-Fc on a ProteOn XPR-36 instrument (Bio-Rad) to facilitate selection of high affinity binders. Goat anti-human Fc IgG (R&D systems), at a concentration of 5 μg/mL, was directly immobilized via amine coupling (at pH 5.0) on all 6 ligand channels in horizontal orientation on the chip with a flow rate of 30 μL/min in PBS containing 0.005% Tween-20. The immobilization densities averaged about 1500 Response Units (RU) with less than 5% variation among different channels. EGFR-Fc was captured on the anti-human Fc IgG surface to a density around 600 RU in vertical ligand orientation. All tested FN3 domains were normalized to a concentration of 1 μM and tested for their binding in horizontal orientation. […] The dissociation phase was monitored for 10 minutes at a flow rate of 100 μL/min. […]
Binding affinity of selected EGFR-binding FN3 domains to recombinant EGFR extracellular domain was further characterized by surface Plasmon resonance methods using a Proteon Instrument (BioRad). […] The dissociation phase for all concentrations of each EGFR-binding FN3 domain was monitored at a flow rate of 100 μL/min for 30 minutes (for those with koff ˜10^−2 s^−1 from off-rate screening), or 1 hour (for those with koff ˜10^−3 s^−1 or slower). […]
(In general: Surface plasmon resonance follows binding to a sensor surface in real time, without labels.)

The next test addresses EGFR on A431 cells (Homo sapiens, UniProt P00533). Put plainly: A431 cell binding assay. The conditions noted are these: purified FN3 domains.
In test [5] the target is EGF binding to EGFR on A431 cells (Homo sapiens, UniProt P00533). Briefly: A431 cell EGF competition assay. Conditions: 30 ng/mL biotinylated EGF. The method, then:
To better characterize the mechanism of EGFR binding, the ability of various identified FN3 domain clones to bind EGFR in an EGF-competitive manner was measured using A431 cells and run in parallel with the A431 binding assay screen. […] Biotinylated EGF (Invitrogen, cat. #E-3477) was added to each well for a final concentration of 30 ng/mL and incubated for 10 minutes at room temperature.
Bacterial lysates containing the FN3 domains were screened in the EGF competition assay described above.
Biotinylated EGF (Invitrogen, Cat #: E-3477) was added to each well to give a final concentration of 30 ng/mL and incubated for 10 minutes at room temperature.

Test [6] addresses T1, EGFR. Briefly: Phospho-EGFR assay: inhibition of EGF-stimulated EGFR phosphorylation (Tyr1173) in A431 cells. The class given is cell-based. Conditions: 50 ng/mL EGF.
Another test deals with NCI-H292 cells. Briefly: NCI-H292 growth assay. The conditions noted are these: 120 hours, CellTiter-Glo. The test is classed as cell-based, human. The method, then:
(§2) Inhibition of EGFR-dependent cell growth was assessed by measuring viability of the EGFR over-expressing human tumor cell lines, NCI-H292 and NCI-H322 (American Type Culture Collection, cat. #CRL-1848 & #CRL-5806, respectively), following
(§3) exposure to EGFR-binding FN3 domains. […] Cells were treated by addition of 5 μL/well of phosphate-buffered saline (PBS) containing a concentration range of EGFR-binding FN3 domains. Controls were treated with 5 μL/well of PBS only or 25 mM ethylenediaminetetraacetic acid in PBS. […] Viable cells were detected by addition of 75 μL/well of CellTiter-Glo® reagent (Promega), followed by mixing on a plate shaker for 2 minutes, and incubation in the dark at room temperature for a further 10 minutes. Plates were read on a SpectraMax M5 plate reader (Molecular Devices) set to luminescence mode, with a read time of 0.5 seconds/well against a blank of medium only. Data were plotted as a percentage of PBS-treated cell growth against the logarithm of FN3 domain molar concentration.
In general terms: Cellular ATP, detected with luciferase, serves as a proxy for viable cell number.

In the next test the test system is NCI-H322 cells. Put plainly: NCI-H322 growth assay. The test is classed as cell-based, human. The conditions noted are these: 120 hours, CellTiter-Glo. The method, then: as §2, §3

B1: ECB5: bispecific SEQ ID NO: 54: P53A1R5-17v2, (GGGGS)4, P114AR7P94-A3 (protein)
chain: MLPAPKNLVVSEVTEDSARLSWADPHGFYDSFLIQYQESEKVGEAIVLTVPGSERSYDLTGLKPGTEYTVSIYGVHNVYKDTNMRGLPLSAIFTTGGGGSGGGGSGGGGSGGGGSMLPAPKNLVVSRVTEDSARLSWTAPDAAFDSFWIRYFEFLGSGEAIVLTVPGSERSYDLTGLKPGTEYVVNIMGVKGGKISPPLSAIFTT
modifications: bispecific EGFR/cMet binding molecule
For B1, the “inhibition of phosphorylation of EGFR, bispecific versus monospecific” value with EGFR [1] and in the test with EGFR [2] was “comparable” in each case. In the test with EGFR [3], the “decrease of IC50 for inhibition of EGFR phosphorylation compared to monospecific EGFR-binding FN3 domain” value is 30 fold.

B2: P54AR4-47: EGFR-binding FN3 domain, SEQ ID NO: 20 (protein)
chain: LPAPKNLVVSEVTEDSLRLSWGYNGDHFDSFLIQYQESEKVGEAINLTVPGSERSYDLTGLKPGTEYTVSIYGVHNVYKDTNMRGLPLSAEFTT
modifications: EGFR binding FN3 domain
Turning to B2, the Kd in [4] turned out to be 2.51 nM. In the test with EGFR on A431 cells, it took 8.6 nM to reach a half-maximal effect (EC50). Besides, the IC50 (usually the midpoint of a concentration-inhibition curve) in test [5] was determined as 7.1 nM; with EGFR [6], 295 nM; with NCI-H292 cells it was 44 nM; in the test with NCI-H322 cells, 39 nM.

These data come from patent US12304939B2, “EGFR and C-met fibronectin type III domain binding molecules” (Janssen Biotech, Inc., priority 2012, dated 2025).
